Measured values from paper PMC3942423 (Nature chemical biology, 2009).

Tests used:
[1] = substrate: OC[C@H]1O[C@H](O[C@H]2[C@@H](O)[C@H](O)[C@@H](CO)O[C@@H]2O)[C@@H](O)[C@@H](O)[C@@H]1O; assay: mannobiose hydrolysis kinetics; type: biochemical, Bacteroides thetaiotaomicron; settings: other: most active mannobiose substrate
[2] = substrate: O=[N+]([O-])c1ccc(O[C@H]2O[C@H](CO)[C@@H](O)[C@H](O)[C@@H]2O)cc1; assay: 4NP-Man hydrolysis kinetics; type: biochemical, Bacteroides thetaiotaomicron; settings: other: substrate 4NP-Man

B1: Bt4092 (Bacteroides thetaiotaomicron VPI-5482) (protein)
chain: QLKDLVQYVNTLQGTDSNFGLSYGNTYPTTGMPYGMHMWSAQTGKNGDGFKYMYAVDKIRAFSQSHQCSPWVSDYAVYSFMPMVGELVVNQDARATKFSHDNEIAKPHYYKVTFDNGITTEMAPTTRGVHLRFSYPTTGDAYLVLDGYTDMSEIKIDPAKRQISGWVNNQRFVNDSKSFRNYFVVQFDKPFEDYGVWENQKDEVFPQKLDGAGKGYGAFIKFKKGSKVQAKAASSYISAEQALITLNKELGKDKNLEVTKARGQKTWNEVLNRIVVEGCTDEQMKTFYSCLFRANLFSRKFYERKENGEPYYYSPYNGKIYDGYMYTDNGFWDTFRSQFPLTNILHPTMQGRYMNALLAAQEQCGWLPSWSSPGETGGMLGNHSISLLADAWAKGIRDFDPEKALKAYAHEAMNKGPWGGANGRGFWKEYFQLGYVPYPESMGSSAQTMEYAYDDFCGYQLAKMVGNKHYQEVFARQMYNYKNVFDKSIGFMRGKGVDGKWQEPFDPLEWGGPFCEGNAWHYTWSVFHDVQGLIDLFGSDEKFTTKIDSVFTIPNIIKPGTYGGVIHEMKEMELANMGQYAHGNQPIQHMPYLYCYAGQPWKTQYWVRQIVERLYNSTEKGYPGDEDQGGMSSWYILSSLGIYAVCPGTDEYVIGSPLFKKATITMENGNKFVIEAPENSKENLYIQSATLNGRLLDKNYIHYDDIAEGGVLKFEMGSQPNKERCTSKYAAPFSLSKE
Km ([1]; enzyme Bt4092, pH 7.0): 2.0 ± 0.45 mM
kcat ([1]; enzyme Bt4092, pH 7.0): 1.83 s⁻¹
kcat/Km ([1]; enzyme Bt4092, pH 7.0): 900 M⁻¹ s⁻¹

B2: Bt3991 (Bacteroides thetaiotaomicron VPI-5482) (protein)
chain: MKLKTLLIGCFGGFIMLNSCTESPSVKDYSAYVNPFIGTGGHGHTFPGAVVPHGMIQPSPDTRIDGWDACSGYYYDDNTINGFSHTHVSGTGCCDYGDVLLMPTVGKPQYLTTDPESQKLAYASAFSHENETAEPGYYSVFLDTYQVKAEITATKRGAIHRYTFPESTESGFIIDLDYSLQRQTNYEMEIEVISDTEICGHKKTTYWAFDQYINFYAKFSKPFAYTLITDSVTMDNGKRLPVCKAVLHFNTKKDEEVLVKVGVSAVDIAGARKNVESEIPEWDFDKVRKDARTAWNNYLSKIDITTSDKEDKTIFYTALYHTAISPNLFTDADGRYLGMDLEVHQGDTINPLYTVFSLWDTFRALHPLMTIIDPNLNNQFINSLIRKHQEGGIYPMWDLASNYTGTMIGYHAVPVIVDAYMKGYRNFDAHEAYKASLRAAEYDTTGIKCPDLVLPHLMPKAKYYKNAIGYIPCDRENESVAKALEYAYDDWCISIFAEAMNDFENKAKYERFAKAYEFYFDKSTRFMRGLDSNGEWRTPFNPRASTHRSDDYCEGTAWQWTWFVPHDVEGLVKLMGGEDAFVEKLDSLFTVDSSLDGETTSADISGLIGQYAHGNEPSHHVIHLYNYVNRPWRTQELVDSVYRSQYANNVDGLSGNEDCGQMSAWYILNSMGFYQVCPGKPVYSIGRPAFDKAVINLPGEKTFSIVAKNNSKSNKYIESVLLNGKPLDTPFFGHQDIVAGGVMEIRMTDHPTQWGVRQ
kcat ([2]; enzyme Bt3991, pH 7.0): 0.0025 ± 0.00035 s⁻¹
kcat/Km ([2]; enzyme Bt3991, pH 7.0): 0.917 M⁻¹ s⁻¹

B3: Bt3130 (Bacteroides thetaiotaomicron VPI-5482) (protein)
chain: GEITKYVNPFIGTGAIDGGLSGNNYPGATSPFGMIQLSPDTSEAPNWGDASGYDYNRNTIFGFSHTRLSGTGASDLIDITLMPTSSGRTSSAFTHDEEKARPGYYQVMLKDENINAELTTTQRNGIHRYQYPAGKDAEIILDMDHSADKGSWGRRIINSQIRILNDHAVEGYRIITGWAKLRKIYFYMEFSSPILTSTLRDGGRVHENTAVINGTNLHGCFRFGQLNGKPLTCKVALSSVSMENARQNMEQEAPHWDFDRYVAAADADWEKQLGKIEVKGTEVQKEIFYTALYHTMIQPNTMSDVNGEYMAADYTTRKVANNETHYTTFSLWDTFRASHPLYTLLEPERVTDFVKSMIRQYEYYGYLPIWQLWGQDNYCMIGNHSIPVITDAILKGIPGIDMEKAYEAVYNSSVTSHPNSPFEVWEKYGFMPENIQTQSVSITLEQAFDDWCVAQLAAKLNKDADYQRFHKRSEYYRNLFHPKTKFFQSKNDKGEWIEPFDPYQYGGNGGHPFTEGNAWQYFWYVPHNIQALMELTGGTKAFEQKLDTFFTSTYKSEQMNHNASGFVGQYAHGNEPSHHVAYLYNFAGQPWKTQKYVSHILNTLYNNTSSGYAGNDDCGQMSAWYVFSAMGFYPVNPADGRYIIGSPLLDECTLKLAGNKEFRIRTIRKSPEDIYIQSVTLNGKKHKDFFITHQDIMNGGTMVFKMGKKPSGWGK
Km ([2]; enzyme Bt3130, pH 7.0): 0.51 ± 0.097 mM
kcat ([2]; enzyme Bt3130, pH 7.0): 56.7 ± 3.17 s⁻¹
kcat/Km ([2]; enzyme Bt3130, pH 7.0): 112000 M⁻¹ s⁻¹

B4: Bt3994 (Bacteroides thetaiotaomicron VPI-5482) (protein)
chain: EIDYTSYVNPFIGTDFTGNTYPGAQAPFGMVQLSPDNGLPGWDRISGYFYPDSTIAGFSHTHLSGTGAGDLYDISFMPVTLPYKEAEAPLGIYSKFSHDEESAYAGYYQVRLKDYHINVELTATERCGIQRYTFPKAEAAIFLNLKKAMNWDFTNDSHIEVVDSVTIQGYRYSDGWARDQRIYFRTRFSKPFDKVELDTTAIIKDKQHIGTAVIARFDFHTEEGEQILVNTAISGVSMEGAAKNLQAEVPENDFDKYLAETKANWNRQLGKIEVEGDNQDDKVNFYTALYHSMIAPTIYSDVDGAYYGPDKKVHQSDGWVNYSTFSLWDTYRAAHPLFTYTEPERVNDMVKSFIAFFEQNGRLPVWNFYGSETDMMIGYHAVPVIVDAYLKGIGNFDAEKALAACVATANLDNYRGIGLYKQLGYIPYNVTDHYNAENWSLSKTLEYAFDDYCIAEMANKMGKKEIADEFYKRSQNYKNVYNPATSFMQPRDDKGNFIKDFKADEYTPHICESNGWQYFWSVQHDIDGLIDLTGGKNRFAEKLDSMFTYHPAADEELPIFSTGMIGQYAHGNEPSHHVIYLFNAVGQQNLTQKYVAKVMNELYKNEPAGLCGNEDCGQMSAWYVFSAMGFYPVNPVSGKYEIGTPLFPEMKLHLANGKTFTVLAPKVSKENIYIQSIKVDGQPYNKTYLTHEQIMSGTTVEFEMGNTPLVEVEFEEQTQ
Km ([2]; enzyme Bt3994, pH 7.0): 3.7 ± 0.43 mM
kcat ([2]; enzyme Bt3994, pH 7.0): 1.57 ± 0.0933 s⁻¹
kcat/Km ([2]; enzyme Bt3994, pH 7.0): 433 M⁻¹ s⁻¹

B5: Bt3963 (Bacteroides thetaiotaomicron VPI-5482) (protein)
chain: QQPVDYVNPIIGTNGMGHTFPGACTPFGWVQLSPDTDTIPHNVNGAYQKNAYEYCAGYQYRDKTIVGFSHTHLSGTGHSDLGDILLMPAVGDVKLNPGRADHPEEGYRSRFDHATEKATPGYYEVMLDDYGIKAQLTATQRTGVHKYTFPKGKDGHLILDLVHGIYNYDGKVLWANLRVENDTLLTGYRITNGWARTNYTYFAISLSQPIKDYGYKDKEKVLYNGFWRRFKLEKNFPEITGRKIVAYFNFETAKDPELVVKVALSAVSTEGAVKNLRAEASGKSFEQLAEAARTDWNNELDHFEIEGTPDQKAMFYTSLYHTMINPSVYMDVDGSYRGLDHNIHQAKGFTNYTIFSLWDTYRAEHPFLNLVKPERNADMVESMIKHEQQSVHGMLPIWSLMGNENWCMSGYHAVSVLADAITKGVFSNVDEALSAMVSTSTVPYYEGVADYMKLGYIPLDKSGTAASSTLEYAYDDWTIYQTALKAGNKEIADTYRKRALNYRNIYDTSIGFARPRYSDGTFKKEFDVLQTYGEGFIEGNSWNFSFHVPHDVFGMIDLMGGEKTFVQKLDELFSMHLPEKYYEHNEDITEECLVGGYVHGNEPSHHVPYLYAWTSQPWKTQYWLREILNKMYKNDINGLGGNDDCGQMSAWYLFSVMGFYPVCPGTDQYVLGAPYLPYLKLTLPNGKTLEIKAPGVSDKKRYVQSLKLNGESYDKMYITHEDILKGGVLEFKMSASPNKRRGVSVQDKPYSLTNGIN
Km ([2]; enzyme Bt3963, pH 7.0): 0.79 ± 0.08 mM
kcat ([2]; enzyme Bt3963, pH 7.0): 0.00045 ± 1.67e-05 s⁻¹
kcat/Km ([2]; enzyme Bt3963, pH 7.0): 0.567 M⁻¹ s⁻¹

B6: Bt3784 (Bacteroides thetaiotaomicron VPI-5482) (protein)
chain: MKTHFSFKHLLFIGGAVLYSMQISAVKNPVDYVSTLVGTQSKFELSTGNTYPATALPWGMNFWTPQTGKMGDGWAYTYNADKIRGFKQTHQPSPWMNDYGQFSIMPITGGLVFDQDQRASWFSHKAEVAKPYYYKVYLADHDVTTELVPTERAAMFRFTYPETKNAYVVIDAFDKGSYVKVIPEENKIIGYSTKNSGGVPENFKNYFVIQFDKPFTFTSGVKENNILPNETEVQGNHTGAIIGFATQKGEIVHARVASSFISYEQAELNLKELGKDSFDQLVTKGKDIWNREMSKVDVEDDNIDNLRTFYSCLYRSMLFPRSFYEIDAKGQVVHYSPYNGKVLPGYMFTDTGFWDTFRCLFPFLNLMYPSMNQKMQEGLVNAYLESGFLPEWASPGHRDCMVGNNSASVVADAYIKGLRGYDIETLWEALKHDANAHLRGTASGRLAYDAYNKLGYVPNNIGIGQNVARTLEYAYNDWTIYTLGKKLGKPASEIDIFKQRALNYKNVYHPKRKLMVGKDDKGVFNPKFDAVDWSGEFCEGNSWHWSFCVFHDPQGLIDLMGGKKEFNNMMDSVFVIPGKQGMESRGMIHEMREMQVMNMGQYAHGNQPIQHMVYLYNYSGEPWKAQHWVREIMDKLYTAGPDGYCGDEDNGQTSAWYVFSALGFYPVCPGTDQYILGTPLFKSAKLHLENGKTVTIKASNNNTDNRYVKDMKVNGKAFTRNYLTHDQLLKGANIQYQMSPTPNKQRGTTEKDIPYSLSFE
kcat ([2]; enzyme Bt3784, pH 7.0): 0.08 ± 0.0065 s⁻¹
kcat/Km ([2]; enzyme Bt3784, pH 7.0): 11.5 M⁻¹ s⁻¹
kcat ([1]; enzyme Bt3784, pH 7.0): 0.45 ± 0.0917 s⁻¹
kcat/Km ([1]; enzyme Bt3784, pH 7.0): 183 M⁻¹ s⁻¹

B7: Bt1032 (Bacteroides thetaiotaomicron VPI-5482) (protein)
chain: GEGKAPPMDKEKSLLIDYVDPFIGTTNFGTTNPGAVCPNGMMSVVPFNVMGSADNTYDKDARWWSTPYEHTNCFFTGYSHVNLSGVGCPELGSLLLMPTTGELNVDYKEYGSKYKDEQASPGYYSNYLTKYNIKTEVSATPRTGIARFTFPKGESHILLNLGEGLTNESGAMLRRVSDSEIEGMKLLGTFCYNPQAVFPIYFVMRVNKVPATTGYWKKQRPMTGVEAEWDRDQGKYKLYTRYGKEIAGDDVGAYFTFETEEGEQVEVQMGVSFVSIENARLNLDKEQSGKNFEQVLSDARAQWNDDLSRITVEGGTDAQKTVFYTALYHLLIHPNVLQDVNGEYPAMESDQILTTKGTRYTVFSLWDTYRNVHQLLTLVYPERQMEMVRTMLDMYREHGWFPKWELYGRETLTMEGDPSIPVIVDTWMKGLRDFDVDLAYEAMYKSATLPGAENLMRPDNDDYMSKGYVPLREQYDNSVSHALEYYIADFALSRFADALGKKKDAEMFYKRSLGYKHYYSKEFGTFRPILPDGTFYSPFNPRQGENFEPNPGFHEGNSWNYTFYVPHDVYGLAKLMGGKKPFVNKLQMVFDEGLYDPANEPDIAYAHLFSYFKGEEWRTQKETQRLLDKYFTTKPDGIPGNDDTGTMSAWAIFNMIGFYPDCPGLPEYALTTPVFNKVTIRLDPKWYKENELVIESNRTGSETLYINKVLLDGKKFNKYRITHDELVHGKRLIFDLK
Km ([2]; enzyme Bt1032, pH 7.0): 1.7 ± 0.36 mM
kcat ([2]; enzyme Bt1032, pH 7.0): 0.006 ± 0.000633 s⁻¹
kcat/Km ([2]; enzyme Bt1032, pH 7.0): 3.5 M⁻¹ s⁻¹
